Reference: US20220064312A1
Residue numbers refer to the chain shown, from its start. Names may count otherwise.

B1: h10A11 IGKV4-1/IGHV3-73 T31A (antibody, name in Kabat numbering, V domains shown)
VH: EVQLVESGGGLVQPGGSLKLSCAASGFAFNAYALYWVRQASGKGLEWVGRIRSKSNNYATYYADSVKDRFTISRDDSKNTAYLQMNSLKTEDTAVYYCTRARFYYSDYGYAMDYWGQGTLVTVSS
VL: DIVMTQSPDSLAVSLGERATINCRSSKSLLHSNGNTYLYWYQQKPGQPPKLLIYRMSNLASGVPDRFSGSGSGTDFTLTISSLQAEDVAVYYCMQHLEYPLTFGQGTKLEIKR
B2: h10A11 IGKV4-1/IGHV3-73 A33V (antibody, name in Kabat numbering, V domains shown)
VH: B1 VH with A31T, A33V
VL: B1 VL
B3: h10A11 IGKV4-1/IGHV3-73 Y58F (antibody, name in Kabat numbering, V domains shown)
VH: B1 VH with A31T, Y61F
VL: B1 VL
B4: h10A11 IGKV4-1/IGHV3-73 D101E (antibody, name in Kabat numbering, V domains shown)
VH: B1 VH with A31T, D113E
VL: B1 VL
B5: h10A11 IGKV4-1/IGHV3-73 Y59F (antibody, name in Kabat numbering, V domains shown)
VH: B1 VH with A31T, Y62F
VL: B1 VL
B6: h10A11 IGKV4-1/IGHV3-73 G100cA (antibody, name in Kabat numbering, V domains shown)
VH: B1 VH with A31T, G109A
VL: B1 VL
B7: h10A11 IGKV4-1/IGHV3-73 Y98F (antibody, name in Kabat numbering, V domains shown)
VH: B1 VH with A31T, Y104F
VL: B1 VL
B8: h10A11 IGKV4-1/IGHV3-73 Y32F (antibody, name in Kabat numbering, V domains shown)
VH: B1 VH with A31T, Y32F
VL: B1 VL
B9: h10A11 IGKV4-1/IGHV3-73 D65E (antibody, name in Kabat numbering, V domains shown)
VH: B1 VH with A31T, D68E
VL: B1 VL
B10: h10A11 IGKV4-1/IGHV3-73 S62T (antibody, name in Kabat numbering, V domains shown)
VH: B1 VH with A31T, S65T
VL: B1 VL
B11: h10A11 IGKV4-1/IGHV3-73 R96K (antibody, name in Kabat numbering, V domains shown)
VH: B1 VH with A31T, R102K
VL: B1 VL
B12: h10A11 IGKV4-1/IGHV3-73 Y35F (antibody, name in Kabat numbering, V domains shown)
VH: B1 VH with A31T, Y35F
VL: B1 VL
B13: h10A11 IGKV4-1/IGHV3-73 V63L (antibody, name in Kabat numbering, V domains shown)
VH: B1 VH with A31T, V66L
VL: B1 VL
B14: h10A11 IGKV4-1/IGHV3-73 A100eV (antibody, name in Kabat numbering, V domains shown)
VH: B1 VH with A31T, A111V
VL: B1 VL
B15: h10A11 IGKV4-1/IGHV3-73 R52K (antibody, name in Kabat numbering, V domains shown)
VH: B1 VH with A31T, R52K
VL: B1 VL
B16: h10A11 IGKV4-1/IGHV3-73 L34I (antibody, name in Kabat numbering, V domains shown)
VH: B1 VH with A31T, L34I
VL: B1 VL
B17: h10A11 IGKV4-1/IGHV3-73 K64R (antibody, name in Kabat numbering, V domains shown)
VH: B1 VH with A31T, K67R
VL: B1 VL
B18: h10A11 IGKV4-1/IGHV3-73 A56V (antibody, name in Kabat numbering, V domains shown)
VH: B1 VH with A31T, A59V
VL: B1 VL
B19: h10A11 IGKV4-1/IGHV3-73 D61E (antibody, name in Kabat numbering, V domains shown)
VH: B1 VH with A31T, D64E
VL: B1 VL
B20: h10A11 IGKV4-1/IGHV3-73 Y102F (antibody, name in Kabat numbering, V domains shown)
VH: B1 VH with A31T, Y114F
VL: B1 VL
B21: h10A11 IGKV4-1/IGHV3-73 Y55F (antibody, name in Kabat numbering, V domains shown)
VH: B1 VH with A31T, Y58F
VL: B1 VL
B22: h10A11 IGKV4-1/IGHV3-73 Y100dF (antibody, name in Kabat numbering, V domains shown)
VH: B1 VH with A31T, Y110F
VL: B1 VL
B23: h10A11 IGKV4-1/IGHV3-73 M100fL (antibody, name in Kabat numbering, V domains shown)
VH: B1 VH with A31T, M112L
VL: B1 VL
B24: h10A11 IGKV4-1/IGHV3-73 N53Q (antibody, name in Kabat numbering, V domains shown)
VH: B1 VH with A31T, N56Q
VL: B1 VL
B25: h10A11 IGKV4-1/IGHV3-73 R50K (antibody, name in Kabat numbering, V domains shown)
VH: B1 VH with A31T, R50K
VL: B1 VL
B26: h10A11 IGKV4-1/IGHV3-73 S100T (antibody, name in Kabat numbering, V domains shown)
VH: B1 VH with A31T, S106T
VL: B1 VL
B27: h10A11 IGKV4-1/IGHV3-73 Y100bF (antibody, name in Kabat numbering, V domains shown)
VH: B1 VH with A31T, Y108F
VL: B1 VL
B28: h10A11 IGKV4-1/IGHV3-73 T57S (antibody, name in Kabat numbering, V domains shown)
VH: B1 VH with A31T, T60S
VL: B1 VL
B29: h10A11 IGKV4-1/IGHV3-73 D100aE (antibody, name in Kabat numbering, V domains shown)
VH: B1 VH with A31T, D107E
VL: B1 VL
B30: h10A11 IGKV4-1/IGHV3-73 F97L (antibody, name in Kabat numbering, V domains shown)
VH: B1 VH with A31T, F103L
VL: B1 VL
B31: h10A11 IGKV4-1/IGHV3-73 S52aT (antibody, name in Kabat numbering, V domains shown)
VH: B1 VH with A31T, S53T
VL: B1 VL
B32: h10A11 IGKV4-1/IGHV3-73 A60V (antibody, name in Kabat numbering, V domains shown)
VH: B1 VH with A31T, A63V
VL: B1 VL
B33: h10A11 IGKV4-1/IGHV3-73 Y99F (antibody, name in Kabat numbering, V domains shown)
VH: B1 VH with A31T, Y105F
VL: B1 VL
B34: h10A11 IGKV4-1/IGHV3-73 S52cT (antibody, name in Kabat numbering, V domains shown)
VH: B1 VH with A31T, S55T
VL: B1 VL
B35: h10A11 IGKV4-1/IGHV3-73 I51L (antibody, name in Kabat numbering, V domains shown)
VH: B1 VH with A31T, I51L
VL: B1 VL
B36: h10A11 IGKV4-1/IGHV3-73 K52bR (antibody, name in Kabat numbering, V domains shown)
VH: B1 VH with A31T, K54R
VL: B1 VL

The binders below were run against human CCR8 (human) (UniProt P51685) (assay: cell-based or functional assay).
human CCR8 (human), sequence (P51685 whole entry): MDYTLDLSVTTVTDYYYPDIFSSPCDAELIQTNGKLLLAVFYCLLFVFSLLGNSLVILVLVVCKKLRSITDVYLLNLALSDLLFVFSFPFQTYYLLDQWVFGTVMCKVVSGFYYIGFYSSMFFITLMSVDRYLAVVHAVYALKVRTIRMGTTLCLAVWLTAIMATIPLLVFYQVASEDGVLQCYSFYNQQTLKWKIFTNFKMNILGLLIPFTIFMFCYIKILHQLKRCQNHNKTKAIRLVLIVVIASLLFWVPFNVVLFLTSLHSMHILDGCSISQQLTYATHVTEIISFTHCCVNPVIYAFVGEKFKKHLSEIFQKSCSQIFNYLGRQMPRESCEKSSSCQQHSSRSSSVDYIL

Going from B1 to B3, the IC50 ratio (WT IC50/mutant IC50) rises from 0.17 to 0.5.

Going from B5 to B6, the IC50 ratio (WT IC50/mutant IC50) rises from 0.03 to 0.07.

Going from B7 to B8, the IC50 ratio (WT IC50/mutant IC50) rises from 0.07 to 0.44.

First: B9
Second: B10
The IC50 ratio (WT IC50/mutant IC50) of the first is lower: 1.3 for the first, 1.6 for the second.

Going from B13 to B14, the IC50 ratio (WT IC50/mutant IC50) falls from 0.56 to 0.49.

Compared with B16, B17 is higher in IC50 ratio (WT IC50/mutant IC50): 0.43 for the first, 0.54 for the second.

Compared with B18, B19 is lower in IC50 ratio (WT IC50/mutant IC50): 0.55 for the first, 0.25 for the second.

First: B20
Second: B21
The IC50 ratio (WT IC50/mutant IC50) of the first is higher: 0.99 for the first, 0.47 for the second.

First: B22
Second: B23
The IC50 ratio (WT IC50/mutant IC50) of the first is lower: 0.55 for the first, 0.72 for the second.

Going from B24 to B25, the IC50 ratio (WT IC50/mutant IC50) rises from 0.03 to 0.12.

Compared with B26, B27 is higher in IC50 ratio (WT IC50/mutant IC50): 0.64 for the first, 0.75 for the second.

First: B28
Second: B29
The IC50 ratio (WT IC50/mutant IC50) of the first is higher: 0.49 for the first, 0.3 for the second.

First: B31
Second: B32
The IC50 ratio (WT IC50/mutant IC50) of the first is lower: 0.22 for the first, 0.67 for the second.

Going from B33 to B34, the IC50 ratio (WT IC50/mutant IC50) falls from 0.8 to 0.53.

First: B35
Second: B36
The IC50 ratio (WT IC50/mutant IC50) of the first is lower: 0.22 for the first, 0.47 for the second.

B2 and B4 cannot be ordered by IC50 (n.d.: 10 nM or more): greater than 10 nM for the first, greater than 10 nM for the second.

B11 and B12 cannot be ordered by IC50 (n.d.: 10 nM or more): greater than 10 nM for the first, greater than 10 nM for the second.

B15 and B30 cannot be ordered by IC50 (n.d.: 10 nM or more): greater than 10 nM for the first, greater than 10 nM for the second.
